The text below walks through data of US20040106173A1, “Bot1: target for antifungal agents” (The University of Miami, priority 2001, published 2004).

The test system of assay [1] is microtubule cytoskeleton of fission yeast cells expressing Myc-Bot1. Nature of the assay: Microtubule depolymerization and Bot1p localization by immunofluorescence in cells expressing Myc-Bot1. Type of assay: cell-based, Schizosaccharomyces pombe. As to conditions: cells expressing Myc-Bot1 exposed for 45 min. The protocol: Cells in liquid cultures were grown exponentially for at least eight generations, at densities below 10^7 cells/ml, before the start of the experiment. Immunofluorescent staining was performed as described (46). Cells were fixed in methanol and stained with the following primary antibodies: a rabbit polyclonal antibody anti-Tea1p (40, a kind gift of Dr. P. Nurse, ICRF London), a rabbit polyclonal antibody anti-Orb6p, a monoclonal anti-hemagglutinin (HA) antibody (Covance), and a chicken polyclonal anti-Myc antibody (Molecular Probes). For actin and microtubule staining, a monoclonal anti-actin antibody (Amersham Pharmacia Biotech) and a monoclonal anti-tubulin antibody (TAT1; a kind gift of Dr. K. Gull), respectively, were used A CY3-conjugated anti-mouse, a CY3-conjugated anti-rabbit, or an FITC-conjugated anti-mouse were used as secondary antibodies (Sigma). Cells were immobilized on coverslips using PBS-containing antifade (Molecular Probes) as mounting medium and photographed using a Zeiss Axiophot microscope or a Leica DMRA microscope, equipped with Metamorph 1.7.4 software (Universal Images).
Because our previous results indicated a role for Tea1p in the control of Bot1p function, the effect of microtubule depolymerization on Bot1p localization was assessed. […]

The target of assay [2] is T1, GST-tagged Tea1p (pESP-GSTtea1+) (Schizosaccharomyces pombe, UniProt P87061 1-1147).
T1 construct: also called GST-Tea1p
T1 sequence (looked up): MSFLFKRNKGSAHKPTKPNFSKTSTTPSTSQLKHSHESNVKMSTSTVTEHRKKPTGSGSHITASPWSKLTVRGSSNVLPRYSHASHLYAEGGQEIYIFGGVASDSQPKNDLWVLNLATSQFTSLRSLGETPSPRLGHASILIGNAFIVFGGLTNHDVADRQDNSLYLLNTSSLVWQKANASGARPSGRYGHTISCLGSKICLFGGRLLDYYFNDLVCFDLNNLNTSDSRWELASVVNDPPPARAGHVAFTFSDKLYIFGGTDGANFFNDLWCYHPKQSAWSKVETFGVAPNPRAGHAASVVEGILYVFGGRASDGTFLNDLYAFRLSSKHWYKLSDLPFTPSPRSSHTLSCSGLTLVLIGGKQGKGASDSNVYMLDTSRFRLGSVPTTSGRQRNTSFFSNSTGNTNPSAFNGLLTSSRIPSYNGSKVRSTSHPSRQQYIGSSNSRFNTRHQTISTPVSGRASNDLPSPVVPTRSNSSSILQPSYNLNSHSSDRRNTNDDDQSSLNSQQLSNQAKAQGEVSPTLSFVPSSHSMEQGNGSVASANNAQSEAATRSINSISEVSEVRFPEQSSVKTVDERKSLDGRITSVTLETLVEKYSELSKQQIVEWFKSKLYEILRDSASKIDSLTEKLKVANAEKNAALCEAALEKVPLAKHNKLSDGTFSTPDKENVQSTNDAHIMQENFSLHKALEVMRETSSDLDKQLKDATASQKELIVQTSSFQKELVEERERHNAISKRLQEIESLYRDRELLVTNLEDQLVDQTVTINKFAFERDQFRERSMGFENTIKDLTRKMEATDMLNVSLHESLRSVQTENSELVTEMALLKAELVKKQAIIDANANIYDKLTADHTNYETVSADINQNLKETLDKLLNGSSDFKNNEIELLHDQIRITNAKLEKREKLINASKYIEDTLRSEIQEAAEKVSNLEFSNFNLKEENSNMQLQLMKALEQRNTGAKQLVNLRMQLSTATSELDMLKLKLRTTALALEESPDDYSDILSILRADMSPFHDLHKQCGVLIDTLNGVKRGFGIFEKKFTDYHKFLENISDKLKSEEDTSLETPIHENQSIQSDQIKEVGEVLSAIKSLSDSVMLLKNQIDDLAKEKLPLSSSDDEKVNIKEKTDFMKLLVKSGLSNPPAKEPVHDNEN
Nature of the assay: glutathione beads carrying GST-Tea1p incubated with a fission yeast extract containing HA-Cdc23p. The protocol:
Cell extracts were prepared as described. GST-Tea1p and GST were purified using glutathione beads (Molecular Probes). Beads were spun, and further incubated for 4 hr with an extract containing HA-Bot1p or a control extract containing HA-Cdc23p.
Glutathione beads were washed three times in HB buffer and then eluted. The eluate was run on a 10% polyacrylamide gel, blotted on nitrocellulose, and probed with a primary anti-HA antibody (Covance) or, separately, with a primary anti-GST antibody (Molecular Probes) and with a horseradish peroxidase-conjugated secondary antibody (ECL, Amersham).
To confirm this interaction between Tea1p and Bot1p in fission yeast extracts, GST-Tea1p and HA-Bot1p were co-expressed in fission yeast cells, and GST-Tea1p was purified using glutathione-coupled resin. The beads were further incubated with an extract containing HA-Bot1p or HA-Cdc23p as a control.

In assay [3] the target is GAL4 binding domain fused to SNF1p (pSE1112, pAS1-SNF1) (UniProt P04386 1-147; P06782 1-633). The experiment in a line: yeast two-hybrid (HIS3 and LACZ reporters). The source says:
(§1) The tea1 gene was fused to the DNA binding domain of GAL4 in a plasmid (pAS1) carrying the trp1 marker. The orb6 gene was fused to the DNA binding domain of GAL4 (pAS1-orb6) and to the GAL4 activator domain (pACT2-orb6). The cDNA library was cloned to the transcription activator domain of GAL4 in a plasmid (pACT) carrying the leu2 marker. Plasmids pAS1, pACT2, pSE1111 (pACT-SNF4), pSE1112 (pAS1-SNF1), pAS1-p53, pAS1-lamin and the S. pombe library prepared in phage λ vectors and plasmids pAS1-SNF1 and pAS1-lamin, both harbored in Y187 strain, were kindly provided by Dr. S. Elledge. The test for cell growth on medium lacking histidine, the beta-galactosidase activation assay and the mating test to detect interaction specificity were performed as described (14). After screening 2×10⁶ transformants, we found five proteins that interact with Orb6p and four that interact with Tea1p in this system, and that were identified multiple times in the screen. Clones containing bot1+ were isolated 22 times in the Orb6p screen and eight times in the Tea1p screen. All clones contained the full-length bot1 sequence, although they usually lacked the initial ATG codon. For beta-galactosidase activation, three independent transformants were assayed for each condition.
(§2) To identify novel components of the Orb6p pathway, a two-hybrid screen was performed to identify cDNAs encoding proteins that interact with Orb6p. One of these, isolated 22 times in this screen, was a novel protein that we named Bot1p. […] The specificity of the positive interaction between Orb6p and Bot1p in the two-hybrid system was controlled by cotransformation of pAS1-orb6 and pACT-bot1 independently with a number of control plasmids. Co-expression of SNF1p or SNF4p was used as positive controls. Orb6p was unable to support the activation of the LACZ-GAL4 and HIS3-GAL4 promoters when co-expressed with GAL4 activation domain fused to SNF4p, or with the GAL4 activation domain (GAD) alone. Bot1p was unable to support the activation of the LACZ-GAL4 and HIS3-GAL4 promoters when co-expressed with the GAL4 binding domain fused to p53, Cdc23p, GAL4 DNA binding domain (GBD) alone, or fused to SNF1p or Cdt1p.

Assay [4] has as its target T2, GAL4 binding domain fused to Cdc23p (pAS1-cdc23) (fission yeast, UniProt P04386 1-147; O42709 1-593).
T2 construct: Two-hybrid control bait
The experiment in a line: yeast two-hybrid (HIS3 and LACZ reporters).
Source text: as §1, §2

For assay [5], the target named is T3, GAL4 binding domain fused to Cdt1p (pAS1-cdt1) (fission yeast, UniProt P04386 1-147; P40382 1-422, limits assumed).
T3 construct: Two-hybrid control bait
Nature of the assay: two-hybrid library screens with other baits; dot blotting of the isolated pACT plasmids.

With `COC(=O)Nc1nc2ccccc2[nH]1` [MBC, methyl-benzidazole-carbamate], the “effect on microtubule cytoskeleton” value in assay [1] (DMSO control) is “virtually complete microtubule depolymerization”. Besides, the Bot1p localization entry in assay [1] (DMSO control showed normal Bot1p localization at the cell tips) was “more spread out and less restricted to the cell tips”.

B1: HA-tagged Cdc23p (pRep41-HA3cdc23) (other, fission yeast, UniProt O42709 1-593, looked up, not shown: small tags and cut ends)
chain: MHDPFIAEENDLDLEEKRLQRQLNEIQEKKRLRSAQKEASSENAEVIQVPRSPPQQVRVLTVSSPSKLKSPKRLILGIDKGKTGKDVSLGKGPRGPLPKPFHERLAEARNQERKRSDKLKTMKKNRKQSFQRKRNILEDGKSEEEKFPMKCDEIDPYSRQAIVIRYISDEVAKENIGGNQVYLIHQLLKLVRAPKFEAPEVDNYVVMGIVASNSGTRETVNGNKYCMLTLTDLKWQLECFLFGKAFERYWKIQSGTVIALLNPEVLKPKNPDIGRFSLKLDSEYDVLLEIGRSKHLGYCSSRRKSGELCKHWLDKRAGDVCEYHVDLAVQRSMSTRTEFASSMATMHEPRARREKRFRGQGFQGYFAGEKYSAIPNAVAGLYDAEDAVQTERERKERYKKQRAQAEREREILVRLSKRCCASSSSSSNSNNLSTGMSMRTLGHQYLNLQGSGVKNLHDKGNPTALSKDSEIDSSTKKPSVLASFNASIMNPKSSLPSFSNSAILGTNDAASGTPVPQDTTSTKVSPAVVFTSSPRIFSPQSLRKIGFDPTHSADASTTHSTATGLSRSGSLKNIKFRYEFTESDDEDDLEIVP
notes: also called HA-Cdc23p; HA-Cdc23
For the molecule B1, in assay [2], the binding result is “no binding”.

B2: Bot1p fused to the GAL4 activation domain (pACT-bot1) (other, not shown: large carriers)
chain: MRNSVEFSQLGLKTAFNLSQNKTYTSAVKKQFFSTGAFLSNGGNIDLNKHTQKNIDSKYVACNSRSVTPPNDVASSVSKNTLRHKQRLMMAQWLMSPEVQKAKSSSSGNVGLGPNTNQPFPLNPFFKPPRPISHSLRMKITDEYLQGASIEVLARKFNTSPQRIEALIKLRRINDEFEEKKKPILHSYNEVMEKMLNACTKPEMMQFNDGNDIPLRSNPVSLWKSLPEGETFTPQEAAKILKWPSIEELNMRQNATHFHKTSDEHKDLNEDEELISSSPSEVGKRVFRLIDLSTGNVYRRDTGGDIYVKRKKSTT
notes: also called bot1+ clones
With B2, the binding result in assay [3], in assay [4] and in assay [5] was “no binding” in each case.
